Results from the supplement of paper PMC10567573.

B1: INTS3 (parent)
chain: EEITEESLEESVGKPLYLIFRNLC

Variants of: B1
Assay: protein stability index of a GFP-peptide fusion (GPS, HEK-293T) (PSI 1-6); higher = more stable
Settings: c terminus: a fixed tail appended
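Note: lentivirally expressed fusions sorted by FACS into six bins by GFP to DsRed ratio, PSI derived from sequencing read proportions per bin multiplied by bin number.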

Variant	protein stability index
EEITEESLEESVGKPLYLQFRNLC [I19Q]	4
EEITEESLEESVGKPLYLSFRNLC [I19S]	3.33
EEITEESLEESVGKPLYLKFRNLC [I19K]	3.66
EEITEESLEESVGKPLYLHFRNLC [I19H]	3.85
EEITEESLEESVGKPLYLDFRNLC [I19D]	3.89
EEITEESLEESVGKPLYLEFRNLC [I19E]	3.9
EEITEESLEESVGKPLYLPFRNLC [I19P]	4.17
EEITEESLEESVGKPLYLVFRNLC [I19V]	3.16
EEITEESLEESVGKPLYLCFRNLC [I19C]	3.62
EEITEESLEESVGKPLYLFFRNLC [I19F]	2.3
EEITEESLEESVGKPLYLRFRNLC [I19R]	3.7
EEITEESLEESVGKPLYLGFRNLC [I19G]	3.67
EEITEESLEESVGKPLYLYFRNLC [I19Y]	2.75
EEITEESLEESVGKPLYLWFRNLC [I19W]	2.91
EEITEESLEESVGKPLYLNFRNLC [I19N]	3.92
EEITEESLEESVGKPLYLMFRNLC [I19M]	3.06
EEITEESLEESVGKPLYLAFRNLC [I19A]	3.73
EEITEESLEESVGKPLYLTFRNLC [I19T]	3.41
EEITEESLEESVGKPFYLIFRNLC [L16F]	3.35
EEITEESLEESVGKPMYLIFRNLC [L16M]	2.92
EEITEESLEESVGKPWYLIFRNLC [L16W]	2.41
EEITEESLEESVGKPPYLIFRNLC [L16P]	3.52
EEITEESLEESVGKPVYLIFRNLC [L16V]	2.93
EEITEESLEESVGKPKYLIFRNLC [L16K]	3.39

Variant	protein stability index
EEITEESLEESVGKPGYLIFRNLC [L16G]	3.38
EEITEESLEESVGKPAYLIFRNLC [L16A]	2.99
EEITEESLEESVGKPRYLIFRNLC [L16R]	3.38
EEITEESLEESVGKPHYLIFRNLC [L16H]	3.09
EEITEESLEESVGKPDYLIFRNLC [L16D]	4.26
EEITEESLEESVGKPYYLIFRNLC [L16Y]	2.78
EEITEESLEESVGKPNYLIFRNLC [L16N]	3.62
EEITEESLEESVGKPIYLIFRNLC [L16I]	2.56
EEITEESLEESVGKPEYLIFRNLC [L16E]	3.26
EEITEESLEESVGKPQYLIFRNLC [L16Q]	3.69
EEITEESLEESVGKPTYLIFRNLC [L16T]	3.23
EEITEESLEESVGKPSYLIFRNLC [L16S]	3.29
EEITEESLEESVGKPCYLIFRNLC [L16C]	2.68
EEITEESLEESVGKALYLIFRNLC [P15A]	1.25
EEITEESLEESVGKKLYLIFRNLC [P15K]	1.93
EEITEESLEESVGKHLYLIFRNLC [P15H]	2.24
EEITEESLEESVGKLLYLIFRNLC [P15L]	1.85
EEITEESLEESVGKNLYLIFRNLC [P15N]	2.29
EEITEESLEESVGKMLYLIFRNLC [P15M]	2
EEITEESLEESVGKELYLIFRNLC [P15E]	2.14
EEITEESLEESVGKILYLIFRNLC [P15I]	2.17
EEITEESLEESVGKCLYLIFRNLC [P15C]	2.05
EEITEESLEESVGKTLYLIFRNLC [P15T]	2.06
EEITEESLEESVGKGLYLIFRNLC [P15G]	2

Variant	protein stability index
EEITEESLEESVGKSLYLIFRNLC [P15S]	2.02
EEITEESLEESVGKRLYLIFRNLC [P15R]	2.12
EEITEESLEESVGKYLYLIFRNLC [P15Y]	1.74
EEITEESLEESVGKDLYLIFRNLC [P15D]	3.32
EEITEESLEESVGKVLYLIFRNLC [P15V]	1.77
EEITEESLEESVGKQLYLIFRNLC [P15Q]	1.52
EEITEESLEESVGKWLYLIFRNLC [P15W]	2.06
EEITEESLEESVGKFLYLIFRNLC [P15F]	1.97
EEITEESLEESVGKPLSLIFRNLC [Y17S]	2.85
EEITEESLEESVGKPLRLIFRNLC [Y17R]	2.61
EEITEESLEESVGKPLCLIFRNLC [Y17C]	3.12
EEITEESLEESVGKPLKLIFRNLC [Y17K]	4.07
EEITEESLEESVGKPLELIFRNLC [Y17E]	3.33
EEITEESLEESVGKPLWLIFRNLC [Y17W]	2.84
EEITEESLEESVGKPLGLIFRNLC [Y17G]	3.59
EEITEESLEESVGKPLHLIFRNLC [Y17H]	3.69
EEITEESLEESVGKPLTLIFRNLC [Y17T]	3.22
EEITEESLEESVGKPLALIFRNLC [Y17A]	3.32
EEITEESLEESVGKPLLLIFRNLC [Y17L]	2.28
EEITEESLEESVGKPLMLIFRNLC [Y17M]	2.85
EEITEESLEESVGKPLILIFRNLC [Y17I]	2.62
EEITEESLEESVGKPLNLIFRNLC [Y17N]	3.46
EEITEESLEESVGKPLDLIFRNLC [Y17D]	4.25
EEITEESLEESVGKPLFLIFRNLC [Y17F]	2.73

Variant	protein stability index
EEITEESLEESVGKPLPLIFRNLC [Y17P]	4.11
EEITEESLEESVGKPLQLIFRNLC [Y17Q]	2.92
EEITEESLEESVGKPLVLIFRNLC [Y17V]	2.68
EEITEESLEESVGKPLYLIFRALC [N22A]	2.26
EEITEESLEESVGKPLYLIFRILC [N22I]	2.05
EEITEESLEESVGKPLYLIFRDLC [N22D]	3.4
EEITEESLEESVGKPLYLIFRQLC [N22Q]	2.42
EEITEESLEESVGKPLYLIFRGLC [N22G]	2.19
EEITEESLEESVGKPLYLIFRYLC [N22Y]	2.06
EEITEESLEESVGKPLYLIFRLLC [N22L]	3.01
EEITEESLEESVGKPLYLIFRRLC [N22R]	2.96
EEITEESLEESVGKPLYLIFRSLC [N22S]	2.79
EEITEESLEESVGKPLYLIFRTLC [N22T]	2.15
EEITEESLEESVGKPLYLIFRMLC [N22M]	2.33
EEITEESLEESVGKPLYLIFRCLC [N22C]	2.83
EEITEESLEESVGKPLYLIFRHLC [N22H]	2.64
EEITEESLEESVGKPLYLIFRWLC [N22W]	1.68
EEITEESLEESVGKPLYLIFRELC [N22E]	2.8
EEITEESLEESVGKPLYLIFRPLC [N22P]	2.54
EEITEESLEESVGKPLYLIFRFLC [N22F]	2.94
EEITEESLEESVGKPLYLIFRVLC [N22V]	1.55
EEITEESLEESVGKPLYLIFRKLC [N22K]	2.56
